Reference: US20260258115A1 (MAPP BIOPHARMACEUTICAL, published 2026)

Key:
[1] = biological target: RSV F on recombinant mKate-RSV B 18537 virus (Respiratory syncytial virus B 18537, UniProt P13843 26-574); assay: cell-based or functional assay
[2] = biological target: RSV prefusion F, subtype A (preF, DS-Cav1 trimer) (Respiratory syncytial virus subtype A, UniProt P03420 26-513); assay: BLI, IgG apparent affinity
[3] = biological target: T1, RSV postfusion F, subtype A (postF, F ΔFP trimer) (Respiratory syncytial virus subtype A, UniProt P03420 26-513); assay: BLI, IgG apparent affinity
T1 construct: also called Postfusion subtype A

[4] = biological target: T2, RSV postfusion F, subtype B (postF trimer) (Respiratory syncytial virus subtype B, UniProt P13843 26-513); assay: BLI, IgG apparent affinity
T2 construct: also called Postfusion subtype B

[5] = biological target: RSV F on recombinant mKate-RSV A2 virus (Respiratory syncytial virus A2, UniProt P03420 26-574); assay: cell-based or functional assay
[6] = biological target: RSV F on RSV subtype A virus (RSV-A2) (Respiratory Syncytial Virus, subtype A, …, UniProt P03420 26-574); assay: cell-based or functional assay
[7] = biological target: RSV prefusion F (preF), DS-Cav1 stabilized trimer, subtype A (Respiratory Syncytial Virus, subtype A, UniProt P03420 26-513); assay: BLI, IgG on anti-human IgG sensors, 100 nM antigen, apparent KD
[8] = biological target: RSV postfusion F (postF), F ΔFP trimer, subtype A (Respiratory Syncytial Virus, subtype A, UniProt P03420 26-513); assay: BLI, IgG on anti-human IgG sensors

B1: ADI-21073 (antibody, V domains shown)
VH: EVQLVESGGGLVRPGRSLRLSCAASGFTFSMFSMNWVRQAPGKGLEWLAYIGGSGSTIDYANSVSGRFTISRDNAKNSLYLQMNSLRDEDTAVYYCARIGLQTYNSHSSSSSPARAFDVWGQGTTVTVSS
VL: DIVLTQSPSSLSASVGDRVTITCRASQSIGRFLNWYQQKPGKAPKLLIYAASSLESGVPSRFSGSGSGTQFSLTISSLQPEDFTTYYCQQSYSTPTTFGGGTKVDIK
[1]
  Neut IC50 (ug/ml) subtype B: 11.2 µg/mL
[2]
  Kd: 4.06 nM
[3]
  Kd: 0.58 nM
[4]
  Kd: 0.675 nM

B2: ADI-21085 (antibody, V domains shown)
VH: EVQLVETGGGLVKPGGSLRLSCEASGFNFRSYSMNWVRQAPGKGLEWVSSISASSSYINYADSVKGRFTISRDNSKNSLYLQMNSLRAEDTGVYYCARVLVHYYYGMDVWGQGTTVTVSS
VL: QSVLTQPPSVSAAPGQRVTISCTGTSSNIGAGYDVHWYQQLPGRAPKLLILGNNNRPSGVPDRFSGSKSGTSASLAITGLQAEDEADYYCQTYDKTLMEIFGGGTKLTVL
notes: also called Ab 330
[1]
  Neut IC50 (ug/ml) subtype B: 0.48 µg/mL
[5]
  Neut IC50 (ug/ml) subtype A: 0.1 µg/mL
[2]
  Kd: 0.307 nM
[3]
  binding result: no binding
[4]
  Kd: 6.24 nM

B3: ADI-41827 (antibody, V domains shown)
VH: EVQLSESAGGVVQPGGSLRLTCAASGFSFSTNGMHWVRQAPGKGLEWVAFIRYDGSKKYYAESVKGRFTISREDSNNTLYLQMNSLRPEDTAVYYCAKEDCSGGTCYHERNYYYYGMDVWGQGTTVTVSS
VL: QPVLTQPPSLPVSPGQTASITCSGDKLEYKYACWYQHKPGQSPVLVIYQDNKRPSGIPERFSGSNSGNTATLTISGTQPMDEADYYCQAWDSSTVVFGGGTKVTVL
[6]
  Neutralization IC50 (RSV subtype A): > 25 µg/mL
[7]
  Kd: 0.186 nM
[8]
  binding result: no binding (tested: 100 nM antigen)

B4: ADI-41833 (antibody, V domains shown)
VH: EVQLLESGGGLVQPGGSLRLSCAASRFTFSTYAMSWVRQAPGKGLEWVSSISGSGDKTFYTDSVKGRFTISRDNSKNTLYLQMNSLRAEDTAVYYCARESYYELWTGTYPGWELDYWGQGTLVTVSS
VL: DIQLTQSPSSLSASVGDRVTITCRASQDISNYLAWYQQKPGKPPKLLIYAASILESGAPSRFSGSGSGTDFTLTISSLQPEDVGTYYCQKSNSAPRPFGQGTKVEIK
[6]
  Neutralization IC50 (RSV subtype A): 0.02 µg/mL
[7]
  Kd: 0.723 nM
[8]
  binding result: no binding (tested: 100 nM antigen)

B5: ADI-21076 (antibody, V domains shown)
VH: EVQLVESGGGLVRPGGSLRLSCAASGFTFSSYAMDWVRQAPGKGLEWVSSISASSSFISYTDSVKGRFTISRDNAKNSLFLQMDNVTAEDTAVYYCARDYYESGRYFYGNPFDIWGQGTMVTVSS
VL: QPVLTQPPSVSGAPGQRVTISCTGSGSNIGAGFDVHWYQQLPGTAPKLLIYANSDRPSGVPDRFSASKSGTSASLAITGLQAEDEAHYYCQSYDNSLGGLCVFGTGTKLTVL
[1]
  Neut IC50 (ug/ml) subtype B: 0.3 µg/mL
[5]
  Neut IC50 (ug/ml) subtype A: 0.03 µg/mL
[2]
  Kd: 0.219 nM
[3]
  Kd: 7.34 nM
[4]
  Kd: 6.28 nM

B6: ADI-41836 (antibody, V domains shown)
VH: EVQLLESGAEVKKPGASVKVSCRASGYTFTSNTLHWVRQAPGQGLEWMGWINADNGNTRYSQKFQGRVTITRDTSANTAYMELSSLISEDTAVYYCAREWSGFWSGLNWFEPWGQGTLVTVSS
VL: QSVLTQPPSVSGAPGQRVTISCTGSSSNIGSGNDVHWYQQFPGTAPKVLIYVNSIRPSGVSDRFSGSKSGTSASLAITGLRAEDEADYYCQSYDSSLNGVAFGGGTKLTVL
[6]
  Neutralization IC50 (RSV subtype A): > 25 µg/mL
[7]
  Kd: 5.74 nM
[8]
  binding result: no binding (tested: 100 nM antigen)

B7: ADI-21091 (antibody, V domains shown)
VH: QVQLVQSGAEVKKPGESLRISCQYSAYGFSTYWISWVRQLPGKGLEWMGRIDPSDSHTTYSPSFQGHVTLSADKSISTVYLQWSSLKASDTAMYYCARHQEYSGSDLDSWGQGTLVTVSS
VL: QPVLTQPPSVSAAPGQRVTISCSGTRSNIGYNFVSWYQQLPGTAPKLLIYDNNKRPSGIPDRFSGSKSGTSATLAITGLQTGDEADYYCGTWDSSLSALFGGGTKVTVL
[1]
  Neut IC50 (ug/ml) subtype B: 0.92 µg/mL
[5]
  Neut IC50 (ug/ml) subtype A: 0.29 µg/mL
[2]
  Kd: 0.749 nM
[3]
  binding result: no binding
[4]
  binding result: no binding

B8: ADI-21083 (antibody, V domains shown)
VH: QVQLQESGPGLVKPSGTLSLTCAVSGDSITTSNWWSWVRQPPGKGLEWIGEIYHSGVTRYNPSLKSRLSISLDKSRNQFSLKLSSVTAADTAVYYCARDEALFGHWFDPWGQGTLVTVSS
VL: QSVLTQPRSVSGSPGQSVTISCTGSSSDIGSYNYVSWYQQHPGKAPKLMLYDVSKRPSGVPDRFSGSKSVKTASLTISGLQAEDEADYYCCTYAGNSVVFGGGTKLTVL
[1]
  Neut IC50 (ug/ml) subtype B: 0.79 µg/mL
[5]
  Neut IC50 (ug/ml) subtype A: 0.36 µg/mL
[2]
  Kd: 2.25 nM
[3]
  binding result: no binding
[4]
  binding result: no binding

B9: ADI-41820 (antibody, V domains shown)
VH: EVQLVESGGGVVQPGRSLRLSCAVSGFTFSTYGMHWVRQTPGRGLEWVAVISYDGNHKYYADSVMGRFTISRDNSKDTLYLQVNSLRPEDSAVYYCAKDRIHCPNGVCYVHSSFYGLDVWGQGTTVTVSS
VL: QTVVTQEPSLTVSPGGTVTLTCGSSTGAVTSGHYPYWLQQKPGQAPRTLIYDTTNKDSWTPARFSGSLLGGKAALTLSGAQPEDEAQYYCLLSFNGPYWVFGGGTKVTVL
notes: also called Ab 926; Antibody Number 926
[6]
  Neutralization IC50 (RSV subtype A): > 25 µg/mL
[7]
  Kd: 64.9 nM
[8]
  binding result: no binding (tested: 100 nM antigen)

B10: ADI-21084 (antibody, V domains shown)
VH: EVQLVESGAEVKKPGASVTVSCKASGYTFTSNTISWLRQAPGQGLEWLGWVSASNGNTKYAQKFQGRVTMTTDTSATTAYMEVRTLRHDDTAIYYCARDILDMGGFHFDNWGQGTLVTVSS
VL: SYVLTQPPSVSVAPGQTARITCGGNNIGNKHVHWYKQKPGQAPVLVVYDDSDRPSGIPERFSGSNSGNTATLTVSRVEAGDEADFYCQVWDNTNDHPVFGGGTKVTVL
[1]
  Neut IC50 (ug/ml) subtype B: 0.46 µg/mL
[5]
  Neut IC50 (ug/ml) subtype A: 0.14 µg/mL
[2]
  Kd: 0.109 nM
[3]
  Kd: 17.3 nM
[4]
  Kd: 22.9 nM

B11: ADI-41838 (antibody, V domains shown)
VH: EVQLLESGGGVVQPGRSLRLSCAASEFTFRSYAMHWVRQAPGMGLEWVAVTPYDGISKYYADSVKGRFTISRDNSKNTLYLQMNSLRPEDTAVYYCARGFPEPITSWPGYFYAMDVWGQGTTVTVSS
VL: QSALTQPASVSGSPGQSITISCTGTTSDVGVYNYVSWYQQHPGKAPKLMIYDVSNRPSGVSNRFSGSKSGNTASLTISGLQAEDEADYYCSSYTNSDTPVVFGGGTKLTVL
notes: also called Ab 938; Antibody Number 938
[6]
  Neutralization IC50 (RSV subtype A): > 25 µg/mL
[7]
  Kd: 32.1 nM
[8]
  binding result: no binding (tested: 100 nM antigen)

B12: ADI-21068 (antibody, V domains shown)
VH: QVQLQESGPGLVKPSGTLSLTCVVSGGSIKSHNYWTWVRQPPGKGLEWVGEIYQSGRTNYNPSLNSRVTLSMDKSKNQLSLRLTSVTAADTAVYFCVGGGPFAPYYFQTWGQGTLVTVSS
VL: QSVLTQPPSVSGAPGQRVTISCTGSSSNIGAGYDVHWYQQLPGTAPKLLIYNNNNRPSGVPDRFSGSKSGTSASLAITGLQAEDEADYYCQSYDTSLSGYVFGTGTKVTVL
[5]
  Neut IC50 (ug/ml) subtype A: 0.1 µg/mL
[2]
  Kd: 0.255 nM
[3]
  Kd: 15.5 nM
[4]
  Kd: 7.85 nM

B13: ADI-21070 (antibody, V domains shown)
VH: EVQLVESGGGLVQPGGSLRLSCAASGFTFSRYAMGWVRQAPGKGLEWVSTISDSGGSTFYADSVEGRFTIARDSSKNTLSLHMNSLRAEDTAIYYCAREAYSSSWYSGGWFDRWGQGTLVTVSS
VL: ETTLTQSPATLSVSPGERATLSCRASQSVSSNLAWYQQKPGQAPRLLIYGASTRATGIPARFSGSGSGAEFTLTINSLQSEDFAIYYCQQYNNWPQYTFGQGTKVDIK
[1]
  Neut IC50 (ug/ml) subtype B: 2.38 µg/mL
[2]
  Kd: 5.37 nM
[3]
  binding result: no binding
[4]
  binding result: no binding

B14: ADI-41839 (antibody, V domains shown)
VH: EVQLLESGGGVVQPGGSLRLSCVASGFTFSAYGMHWVRQAPGKGPEWVAMTRSDGNKIYYADSVKGRFTISRDDSKNTLYLEMNSLRPDDTAVYFCAKEVGYGGNSLHYWGQGTLVTVSS
VL: SYELIQPPSVSVAPGQTAKITCGGNNIGSKSVHWYQQKPGQAPVLVVFDDSDRPSGIPERFSGSNSGNTATLTISRVEAGDEADYYCQVWDFSSDLWVFGGGTKLTVL
notes: also called Ab 939; Antibody Number 939
[6]
  Neutralization IC50 (RSV subtype A): > 25 µg/mL
[7]
  Kd: 7.88 nM
[8]
  binding result: no binding (tested: 100 nM antigen)

B15: ADI-41815 (antibody, V domains shown)
VH: EVQLLESGGGLVKPGGSLRLSCGASGFTFSTSSFNWVRQAPGKGLEWVSSISSTSSYVFYADSVKGRFTVSRDNAQNSLYLQMNSLRAEDTAVYYCARARGVGATIGFDYWGQGTLVTVSS
VL: not shown
notes: also called Ab 922; Antibody Number 922
[6]
  Neutralization IC50 (RSV subtype A): > 25 µg/mL
[7]
  Kd: 3.21 nM
[8]
  binding result: no binding (tested: 100 nM antigen)

B16: ADI-41837 (antibody, V domains shown)
VH: QVQLVQSGAEVKKPGASVKVSCKASGYTFTSYGISWVRQAPGQGLEWMGWISAYSGDTDYAQKLQGRVTMTTDTATSTAYMELRSLRSDDTAVYYCARDAHCSSTNCYIDLGGAPVDYWGQGTLVTVSS
VL: DIVLTQTPLSLSVTLGQPASISCRSSQSLVYIDGYTYLNWFQQRPGQSPRRLIYKVSNRDSGVPDRFSGSGSGTDFTLKISRVEAEDVGVYYCMQGAHWPWTFGQGTKVEIK
notes: also called Ab 937; Antibody Number 937
[6]
  Neutralization IC50 (RSV subtype A): > 25 µg/mL
[7]
  Kd: 7.09 nM
[8]
  binding result: no binding (tested: 100 nM antigen)
